Assay results published in patent US11739132B2, “Separation moieties and methods of use thereof” (Werewolf Therapeutics, Inc., priority 2019, dated 2023).
Each block holds one sequence with its values, some of them ahead of it. No end group written: not given here.

How the values were obtained:
[1] = target: T1, Hepsin (Homo sapiens, UniProt P05981); assay: 30-mer library counter-screening MSP-MS, Hepsin; assay type: biochemical; conditions: for Apparent catalytic efficiency, hepsin: order of magnitude
T1 construct: purchased R&D Systems (Bio-techne) 4776-SE
Description: (§1) Protease specificity screening was performed using Multiplexed Substrate Profiling by Mass Spectrometry (MSP-MS), the method described in, e.g. O'Donoghue A. J. et al., Nat Methods., 2012; 9(11): 1095-1100. This method employs a physico-chemically diverse peptide library as substrates for proteases, and reactions are monitored over time with mass spectrometric detection of cleaved products. The resulting cleavages are assessed for specific cleavage in the enzyme-treated sample by comparison with results from a no-enzyme control incubation.
(§2) Enzymes were activated and assayed following the manufacturer's recommendations.
Hepsin was pre-activated overnight at 37° C. in the manufacturer recommended buffer: 100 mM TRIS, 10 mM CaCl2, 150 mM NaCl, 0.05% Brij-35, pH 8.0. Activity was measured with 2.4 or 24 nM enzyme in the buffer: 50 mM TRIS HCl at pH 7.4.
(§3) Counter-screening was performed against the enzymes Thrombin, Factor Xa and Hepsin using this library as well, and for calibration of activity, a positive-control peptide bearing favorable motifs for these enzymes was also designed (ALU30-19).
(§4) Catalytic efficiency (kcat/KM) estimations were used to rank the top cleaved substrates in the MSP-MS reaction. Peptides were quantified by mass spectrometric label-free quantitation from the MS1 precursor ion peak areas for each peptide. Enzyme progress curves were modeled from six-time point measurements in GraphPad Prism. Data were fitted using non-linear least squares fitting to the first order kinetics equation:
(§5) [formula] where Y=percent product formation or substrate consumption, and t=time. The observed rate is a function of the enzyme concentration [E0], and an observed catalytic efficiency (kcat/KM) in units M^−1s^−1
(§6) Counter-screening with Thrombin, Factor Xa and Hepsin was also performed following the same analysis. The library peptide Alu30-19 was designed to include authentic sites for each enzyme, for comparison of overall cleavage efficiency as well as cleavage site specificity within each motif. The substrate designed for Factor Xa has the motif FNPR|TFGS (SEQ ID NO: 248), derived from the Factor Xa cleavage site in Thrombin. The substrate motif for Thrombin was FPR|, a common tool substrate motif. The substrate motif for hepsin was RKRR|GSRG (SEQ ID NO: 249) from filaggrin.

[2] = target: T2, Thrombin (Homo sapiens, UniProt P00734); assay: 30-mer library counter-screening MSP-MS, Thrombin; assay type: biochemical
T2 construct: purchased R&D Systems (Bio-techne) 2196-SE-200
Description: as §1, §2
Thrombin was activated following the manufacturer's recommended conditions by pre-incubation with the enzyme with thermolysin for 15 min, and then the thermolysin was quenched with 1,10 phenanthroline treatment. Activated thrombin was assayed at 1.2 nM in activation buffer: 50 mM TRIS HCl, 10 mM CaCl2, 150 mM NaCl, 0.05% (w/v) Brij-35, pH 7.5.
as §3, §4, §5, §6

[3] = test system: conditioned media from MC38, CT26, CT26 pLVX MMP9-5T4+dox and myofibroblast cell lines; assay: FRET end-point screen of conditioned media; assay type: biochemical, mouse; conditions: for Ratio of tumor vs control activity, end-point screen: three tumor cell lines vs myofibroblast cell line, complete (+FBS) media, 10 μM substrate
Description: Proteolytic activity was screened in the conditioned media samples by fluorescent resonance energy transfer (FRET) assays with the substrates listed in Table 10.
(§7) Conditioned media and cell lysate samples were received from Charles River Laboratories for the murine colon cancer cell lines: MC38 (epithelial), CT26 (fibroblast), and CT26 transduced with a lentivirus for doxycyclin-inducible expression of MMP9 (CT26 pLVX MMP9-5T4+dox). An immortalized mouse intestinal myofibroblast cell line (ABM Good #T0565) was used as a control stromal cell line, grown under manufacturer recommended conditions. Conditioned media and cell lysate samples were also received for screening purposes from ABM Good for the immortalized mouse colonic epithelial cell line YAMC (ABM Good #T0567).
Conditioned media samples were prepared according to the standard protocol using logarithmic phase cells. Briefly, cells were grown for 16h in either serum-free media or in complete media containing 10% fetal bovine serum (FBS). After conditioned media collection, the adherent cells were washed then lysed on plate with non-denaturing lysis buffer to produce a lysed “cell pellet” to capture any activity that remained associated with the cells. All cell culture-derived conditioned media samples, cell lysates from Charles River Laboratories, and cell lysates derived internally were processed with identical methods, to allow comparison between samples.
The resulting conditioned media was buffer exchanged with PBS and concentrated to 10× the original titer as a stock solution.
FBS background controls were therefore used for baseline subtraction at each concentration of substrate throughout the FRET experiments.
(§8) In the end-point screening assays, a fixed titer of 10× concentrated sample and a substrate concentration of 10 μM was used. Values reported in the end-point experiments are initial velocity measurements, in relative fluorescence units (RFU) per second. End-point measurements are a starting point for a screen, but the rate of the reaction is non-linearly related to substrate concentration. Therefore, a more accurate representation of activity would be given by steady-state kinetic measurements covering a range of substrate concentrations. To compare activity across cell lines, the data were treated with a Michaelis-Menten model, and the concentration of equivalent enzyme units [E0] was solved.

[4] = test system: conditioned media from tumor, myofibroblast and YAMC cell lines; assay: FRET steady-state kinetics of conditioned media (enzyme equivalents); assay type: biochemical, mouse; conditions: for Secreted activity in conditioned media, steady-state kinetics: tumor cell lines
Description: as §7, §8
Accordingly, initial velocity was measured as a function of substrate concentration, using a 2-fold dilution series from 250 to 1 μM. Data were fitted using non-linear least squares fitting with GraphPad Prism software v 8.0 to the Michaelis-Menten equation:
[formula] where kcat is the rate of product formation under steady-state conditions in units (s^−1), and KM is the Michaelis constant that gives the substrate concentration in molar units (M) at which half maximum velocity of the reaction is produced for a given enzyme, [E0] is the enzyme concentration, and [S] the substrate concentration in (M).
In the assays where purified recombinant enzyme is used, the Michaelis-Menten parameters are as classically defined above. For conditioned media samples, the effective titer of conditioned media per assay was adjusted to approximately a 2× concentrate of the original unprocessed media samples to assure that the detection range matched the signal produced. The enzyme component in the calculation is redefined as a mixture of possible proteases that contribute to the cumulative observed activity, each with intrinsic reactivity toward a substrate. In this case, it is more appropriate to consider kcat and KM as macroscopic constants that represent the overall efficiency of catalysis, and E0 is an enzyme equivalent, expressed in units of concentration. To solve the data fit, kcat/KM can be fixed at that of the recombinant enzyme and enzyme equivalents per cell culture volume can be output. The effective titer of enzyme equivalents in this case can be used to compare the activity produced by the different cell lines.
An immortalized mouse colonic epithelial cell line (YAMC) was used to test activity in the presence of additional control “normal” epithelial cells. YAMC's are given the calculated enzyme equivalents (nM) resulting from all of these steady state experiments, to allow for comparison of the amount of equivalent activity per sample. For example, the YAMC control epithelial cell line produced activity with the ADAM17_2 substrate equivalent to that of 0.52±0.03 nM of ADAM17 recombinant enzyme. This cell line compares directly to MC38, also of epithelial origin, which had activity equivalent to that of 0.32±0.03 nM of ADAM17 recombinant enzyme. […] This cell line required non-standard cell culture conditions, including growth with murine IFNγ, and at low temperature to maintain, and may not be fully representative of epithelial cell lines.

[5] = target: T3, FAPα (Homo sapiens, UniProt Q12884); assay: 30-mer tandem linker library MSP-MS, FAPα; assay type: biochemical
T3 construct: purchased R&D Systems (Bio-techne) 930-ADB-010
T3 sequence (Q12884 1-760): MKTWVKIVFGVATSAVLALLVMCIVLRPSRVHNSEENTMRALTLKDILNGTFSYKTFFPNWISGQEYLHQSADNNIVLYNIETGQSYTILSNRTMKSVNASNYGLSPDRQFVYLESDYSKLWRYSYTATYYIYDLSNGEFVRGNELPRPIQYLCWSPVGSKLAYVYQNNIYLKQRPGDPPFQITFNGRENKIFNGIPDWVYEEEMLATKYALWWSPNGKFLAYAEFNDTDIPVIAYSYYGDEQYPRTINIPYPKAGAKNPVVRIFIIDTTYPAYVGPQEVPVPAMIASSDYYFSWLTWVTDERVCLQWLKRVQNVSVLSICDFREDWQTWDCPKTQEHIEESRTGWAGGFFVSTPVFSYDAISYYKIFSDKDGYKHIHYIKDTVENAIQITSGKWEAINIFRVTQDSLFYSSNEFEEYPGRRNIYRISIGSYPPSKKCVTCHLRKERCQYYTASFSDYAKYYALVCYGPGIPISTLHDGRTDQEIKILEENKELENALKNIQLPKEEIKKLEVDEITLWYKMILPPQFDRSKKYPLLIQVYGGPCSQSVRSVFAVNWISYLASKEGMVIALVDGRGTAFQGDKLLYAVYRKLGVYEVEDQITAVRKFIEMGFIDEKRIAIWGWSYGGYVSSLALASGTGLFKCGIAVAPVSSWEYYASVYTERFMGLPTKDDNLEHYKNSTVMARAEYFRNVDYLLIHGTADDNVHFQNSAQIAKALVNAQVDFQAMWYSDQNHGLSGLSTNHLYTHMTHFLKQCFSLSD
Description: as §1, §2
FAPα activity was tested with fluorescence detection using a generic Z-GP-AMC substrate. For FRET assays, the final enzyme concentration was 5 nM and the buffer was 50 mM TRIS HCl, 1 M NaCl, 1 mg/mL BSA, pH 7.5.
To analyze the catalytic efficiency of candidate tandem linker designs, a tailored library approach using MSP-MS was applied. For the tailored library, a set of nineteen synthetic peptides, 30 amino acids in length (30-mers), were designed to test whether sequence context affects the efficiency of cleavage. Peptides were assayed in a multiplex format together as a substrate library with individual recombinant enzymes, using MSP-MS. For quantitative comparisons, kinetic analysis was performed over a time course, and results are reported either as a catalytic efficiency kcat/KM for well-behaved first-order kinetics, or as observed rates as kobs for more complex kinetic behavior.
as §4, §5

T1 sequence (P05981 163-417 limits assumed): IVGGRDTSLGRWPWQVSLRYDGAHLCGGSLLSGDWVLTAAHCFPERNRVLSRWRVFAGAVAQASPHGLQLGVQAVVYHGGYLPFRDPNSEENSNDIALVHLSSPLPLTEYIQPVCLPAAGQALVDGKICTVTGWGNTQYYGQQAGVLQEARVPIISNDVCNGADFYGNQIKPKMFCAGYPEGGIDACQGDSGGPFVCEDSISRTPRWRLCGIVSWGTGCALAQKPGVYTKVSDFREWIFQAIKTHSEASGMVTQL
T1 sequence (P05981 1-162 partner limits assumed): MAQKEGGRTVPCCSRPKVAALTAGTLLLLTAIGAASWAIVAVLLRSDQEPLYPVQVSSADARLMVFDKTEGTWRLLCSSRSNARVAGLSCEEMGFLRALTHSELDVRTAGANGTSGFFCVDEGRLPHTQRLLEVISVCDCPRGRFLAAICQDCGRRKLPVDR

Sequence: GPAGMKGL (also: Mca fluorophore and Dnp quencher, places not given here) [MMP9_1, FRET substrate with Mca fluorophore and Dnp quencher]
Substrate cleavage activity in the end-point screen ([3]; conditioned media): high activity
Ratio of tumor vs control activity, end-point screen [3]: approximately 4 fold
Secreted activity in conditioned media, steady-state kinetics [4]: Secreted activity was measured

Sequence: RGPLAQKLKSSALFKSSFPGGPAGIGGGGK [Alu30-7]
Relative efficiency of 30-mer peptide degradation by FAPα [5]: not cleaved

Sequence: GGGALFKSSFPLAQKLKSSPGGPAGIGGGR [Alu30-8]
Apparent catalytic efficiency, hepsin [1]: ~10^5 M^−1s^−1
Relative efficiency of 30-mer peptide degradation by FAPα [5]: not cleaved

Sequence: LAQKLKSS (also: Mca fluorophore and Dnp quencher, places not given here) [ADAM17_2, FRET substrate with Mca fluorophore and Dnp quencher]
Ratio of tumor vs control activity, end-point screen [3]: approximately 3 fold
Calculated enzyme equivalents (ADAM17 recombinant enzyme) ([4]; MC38): 0.32 ± 0.03 nM
Calculated enzyme equivalents (ADAM17 recombinant enzyme) ([4]; YAMC control epithelial cell line): 0.52 ± 0.03 nM
Secreted activity in myofibroblast conditioned media, steady-state kinetics [4]: essentially undetectable

Sequence: GALFKSSFPSGGGPAGLYAQGGSGKGGSGK [Alu30-1]
Relative efficiency of 30-mer peptide cleavage by thrombin [2]: most rapidly cleaved in the library

Sequence: RGGPAGLYAQGGPAGLYAQGGGPAGLYAQK [Alu30-4]
Relative efficiency of 30-mer peptide cleavage by thrombin [2]: efficient substrate
Relative efficiency of 30-mer peptide degradation by FAPα [5]: highest cleavage activity

Sequence: KGGGPAGLYAQGPAGLYAQGPAGLYAQGSR [Alu30-3]
Relative efficiency of 30-mer peptide cleavage by thrombin [2]: most rapidly cleaved in the library
Relative efficiency of 30-mer peptide degradation by FAPα [5]: highest cleavage activity

Sequence: LAQRLRSS (also: Mca fluorophore and Dnp quencher, places not given here) [ADAM17_1, FRET substrate with Mca fluorophore and Dnp quencher]
Relative efficiency of cleavage by hepsin [1]: less efficiently cleaved than ADAM17_ 2

More lines, main results first:

Apparent catalytic efficiency, hepsin [1]: ~10^5 M^−1s^−1
Sequence: RGGALFKSSFPLAQKLKSSGPAGLYAQGGK [Alu30-14]

Apparent catalytic efficiency, hepsin [1]: ~10^5 M^−1s^−1
Sequence: RGPGGPAGIGPLAQKLKSSALFKSSFPGGG [Alu30-9]

Relative efficiency of 30-mer peptide cleavage by thrombin [2]: cleaved at lower efficiency
Sequence: GGALFKSSFPGPAGLYAQPLAQKLKSSGGK [Alu30-13]

Relative efficiency of 30-mer peptide cleavage by thrombin [2]: cleaved at lower efficiency
Apparent catalytic efficiency, hepsin [1]: ~10^5 M^−1s^−1
Sequence: GGPLAQKLKSSALFKSSFPGPAGLYAQGGR [Alu30-12]

Cleavage of motif by FAPα ([5]; at PGGP|AGIG and GP|AGLYAQ respectively): able to cleave
Sequence: GPAGLYAQ (also: Mca fluorophore and Dnp quencher, places not given here) [MMP14_1, FRET substrate with Mca fluorophore and Dnp quencher]
Substrate cleavage activity in the end-point screen ([3]; conditioned media): high activity
Substrate cleavage activity, control myofibroblast cell line ([3]; end-point screen, conditioned media): lowest activity
Ratio of tumor vs control activity, end-point screen [3]: approximately 57 fold
Secreted activity in myofibroblast conditioned media, steady-state kinetics [4]: not in the myofibroblast cell line
Secreted activity in conditioned media, steady-state kinetics [4]: significant measurable activity

Relative efficiency of 30-mer peptide cleavage by thrombin [2]: lower cleavage activity
Sequence: KSGPGGPAGIGALFFSSPPLAQKLKSSGGR [Alu30-18]
